The record followed here is patent US20250059292A1 (JCR PHARMACEUTICALS, published 2025).

Assay [1] deals with T1, mouse transferrin receptor extracellular domain (position 87 to position 763 of SEQ ID NO: 39) (mouse, UniProt Q62351 87-763).
T1 construct: Coated on the ELISA plate at 10 ug/mL; also called mouse TfR; mTfR
Description: ELISA: mouse TfR extracellular domain coated on the plate, detected with anti-hI2S monoclonal antibody and HRP-labeled secondary antibody. As for the experimental part: The binding activities of the obtained three types of proteins, mscFv-GS3-hI2S, mscFv2-GS3-hI2S, and hI2S-mscFv2, to the mouse TfR receptor were measured by the ELISA method. The ELISA method was generally performed in the following manner. To each well of a 96-well microtiter plate (Nunc), 100 μL of a mouse transferrin receptor extracellular domain having an amino acid sequence from position 87 to position 763 of an amino acid sequence represented by SEQ ID NO: 39 diluted with 0.05 M bicarbonate buffer (pH 9.6) to a concentration of 10 μg/mL was added, and the plate was allowed to stand at room temperature for at least 1 hour to adsorb the antibody to the plate. Then, 300 μL of TBS containing 1% BSA and 0.05% Tween20 was added to each well, and the plate was allowed to stand at room temperature for 1 hour. Each well was washed three times with TBS containing 0.05% Tween20 (TBS-T), followed by dilution with TBS containing 0.1% BSA and 0.05% Tween20 to 300, 100, 33.33, 11.11, 3.70, 1.23, 0.41, or 0.14 nM for mscFv-GS3-hI2S, 600, 200, 66.67, 22.22, 7.41, 2.47, 0.82, or 0.27 nM for mscFv2-GS3-hI2S, and 1200, 400, 133.33, 44.44, 14.81, 4.94, 1.65, or 0.55 nM for hI2S-mscFv2, and 100 μL of each thereof was added to each well. The plate was allowed to stand at room temperature for at least 1 hour. After the plate was washed three times with TBS-T, anti-hI2S monoclonal antibodies were diluted to 0.5 μg/mL with TBS containing 0.1% BSA and 0.05% Tween20, 100 μL thereof was added to each well, and the plate was allowed to stand at room temperature for at least 1 hour. The plate was washed three times with the TBS-T, then 100 μL of an HRP-labeled anti-human IgG polyclonal antibody (Bethyl) solution diluted to 50 ng/mL with TBS containing 0.1% BSA and 0.05% Tween20 was added to each well, and the plate was allowed to stand at room temperature for at least 1 hour. […] Then, 100 μL of a stop solution (1 N hydrochloride) was added to each well, and the absorbance at 450 nm for each well was measured using a plate reader (SpectraMax iD3, MOLECULAR DEVICES).
(In general: In an ELISA, binding on a coated surface is turned into a signal by an enzyme label.)

For assay [2], the target named is T1, mouse transferrin receptor …. In words: ELISA: mouse TfR extracellular domain coated on the plate, detected with anti-I2S monoclonal antibody and HRP-labeled secondary antibody. The protocol: The recombinant proteins of mscFv3-GS3-hI2S obtained by an ordinary method using CHO cells were measured for their binding activity to mouse transferrin receptor by the ELISA method. The ELISA method was generally performed in the following manner. To each well of a 96-well microtiter plate (Nunc), 100 μL of a mouse transferrin receptor extracellular domain having an amino acid sequence from position 87 to position 763 of an amino acid sequence represented by SEQ ID NO: 39 diluted with 0.05 M bicarbonate buffer (pH 9.6) to a concentration of 10 μg/mL was added, and the plate was allowed to stand at room temperature for at least 1 hour to adsorb the antibody to the plate. Then, 300 μL of TBS containing 1% BSA and 0.05% Tween20 was added to each well, and the plate was allowed to stand at room temperature for 1 hour. Each well was washed three times with TBS containing 0.05% Tween20 (TBS-T). Then, a solution containing mscFv3-GS3-hI2S was diluted using TBS containing 0.1% BSA and 0.05% Tween20 to a concentration of mscFv3-GS3-hI2S of 200, 66.7, 22.2, 7.41, 2.47, 0.82, and 0.27 nM, and 100 μL of the diluted solution was added to each well. The plate was allowed to stand at room temperature for at least 1 hour. […] Then, 100 μL of a stop solution (1 N hydrochloride) was added to each well, and the absorbance at 450 nm for each well was measured using a plate reader (MOLECULAR DEVICES).

T1 sequence (Q62351 87-763): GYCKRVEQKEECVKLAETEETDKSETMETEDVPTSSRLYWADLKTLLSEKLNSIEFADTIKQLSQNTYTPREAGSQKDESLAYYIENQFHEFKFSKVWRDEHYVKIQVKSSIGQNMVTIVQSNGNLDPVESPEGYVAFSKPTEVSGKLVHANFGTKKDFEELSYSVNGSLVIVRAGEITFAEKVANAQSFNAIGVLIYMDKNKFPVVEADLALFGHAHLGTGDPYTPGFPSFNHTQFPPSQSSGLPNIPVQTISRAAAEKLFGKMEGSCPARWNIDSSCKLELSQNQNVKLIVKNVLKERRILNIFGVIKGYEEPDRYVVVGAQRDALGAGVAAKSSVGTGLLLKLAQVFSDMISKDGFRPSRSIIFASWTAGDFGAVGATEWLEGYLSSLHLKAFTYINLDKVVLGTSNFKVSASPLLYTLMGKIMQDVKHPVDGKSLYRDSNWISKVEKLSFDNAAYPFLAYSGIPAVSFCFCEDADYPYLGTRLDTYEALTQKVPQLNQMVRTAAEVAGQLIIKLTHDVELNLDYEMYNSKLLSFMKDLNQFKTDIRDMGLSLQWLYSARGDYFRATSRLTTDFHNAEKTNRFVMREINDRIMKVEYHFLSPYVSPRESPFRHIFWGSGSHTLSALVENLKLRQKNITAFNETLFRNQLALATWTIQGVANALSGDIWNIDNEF

B1: hI2S-mscFv2 (conjugate in which mouse anti-mTfRscFv antibody 2 is bound to the C-terminus of hI2S) (scFv)
chain: SETQANSTTDALNVLLIIVDDLRPSLGCYGDKLVRSPNIDQLASHSLLFQNAFAQQAVCAPSRVSFLTGRRPDTTRLYDFNSYWRVHAGNFSTIPQYFKENGYVTMSVGKVFHPGISSNHTDDSPYSWSFPPYHPSSEKYENTKTCRGPDGELHANLLCPVDVLDVPEGTLPDKQSTEQAIQLLEKMKTSASPFFLAVGYHKPHIPFRYPKEFQKLYPLENITLAPDPEVPDGLPPVAYNPWMDIRQREDVQALNISVPYGPIPVDFQRKIRQSYFASVSYLDTQVGRLLSALDDLQLANSTIIAFTSDHGWALGEHGEWAKYSNFDVATHVPLIFYVPGRTASLPEAGEKLFPYLDPFDSASQLMEPGRQSMDLVELVSLFPTLAGLAGLQVPPRCPVPSFHVELCREGKNLLKHFRFRDLEEDPYLPGNPRELIAYSQYPRPSDIPQWNSDKPSLKDIKIMGYSIRTIDYRYTVWVGFNPDEFLANFSDIHAGELYFVDSDPLQDHNMYNDSQGGDLFQLLMPEVQLVESGGGLVQPGNSLTLSCVASGFTFSNYGMHWIRQAPKKGLEWIAMIAYDSSKMNYADTVKGRFTISRDNSKNTLYLEMNSLRSEDTAMYYCAVPTAHYVVDVWGQGVSVTVSSGGGGSGGGGSGGGGSDIQMTQSPASLSASLEEIVTITCQASQDIGNWLAWYQQKPGKSPQLLIAGATSLADGVPSRFSGSRSGTQFSLKISRVQVEDIGIYYCLQAANTPWTFGGGTKLELKR
notes: Enzyme-scFv fusion, recombinant from CHO cells
The term EC50 denotes the concentration at which the effect is half-maximal. Higher therefore signals a less potent agent. With B1, in assay [1], a half-maximal effect (EC50) was put at 96.7 nM.

B2: mscFv3-GS3-hI2S (conjugate in which hI2S is bound to the C-terminus of mouse anti-mouse transferrin receptor single chain antibody mscFv 3 via the linker of … (scFv)
chain: EVQLVESGGGLVQPGNSLTLSCVASGFTFSNYGMHWIRQAPKKGLEWIAMIAYDSSKMNYADTVKGRFTISRDNSKNTLYLEMNSLRSEDTAMYYCAVPTAHYVVDVWGQGVSVTVSSGGGGSGGGGSGGGGSDIQMTQSPASLSASLEEIVTITCQASQDIGNWLAWYQQKPGKSPQLLIYGATSLADGVPSRFSGSRSGTQFSLKISRVQVEDIGIYYCLQAYNTPWTFGGGTKLELKRGGGGSGGGGSGGGGSSETQANSTTDALNVLLIIVDDLRPSLGCYGDKLVRSPNIDQLASHSLLFQNAFAQQAVCAPSRVSFLTGRRPDTTRLYDFNSYWRVHAGNFSTIPQYFKENGYVTMSVGKVFHPGISSNHTDDSPYSWSFPPYHPSSEKYENTKTCRGPDGELHANLLCPVDVLDVPEGTLPDKQSTEQAIQLLEKMKTSASPFFLAVGYHKPHIPFRYPKEFQKLYPLENITLAPDPEVPDGLPPVAYNPWMDIRQREDVQALNISVPYGPIPVDFQRKIRQSYFASVSYLDTQVGRLLSALDDLQLANSTIIAFTSDHGWALGEHGEWAKYSNFDVATHVPLIFYVPGRTASLPEAGEKLFPYLDPFDSASQLMEPGRQSMDLVELVSLFPTLAGLAGLQVPPRCPVPSFHVELCREGKNLLKHFRFRDLEEDPYLPGNPRELIAYSQYPRPSDIPQWNSDKPSLKDIKIMGYSIRTIDYRYTVWVGFNPDEFLANFSDIHAGELYFVDSDPLQDHNMYNDSQGGDLFQLLMP
notes: scFv-enzyme fusion, recombinant from CHO cells; also called mscFv 3-hI2S conjugate
Consider B2, for which the EC50 in assay [2] came to 4.4 nM.

B3: mscFv2-GS3-hI2S (conjugate in which hI2S is bound to the C-terminus of mouse anti-mTfRscFv antibody 2 via the linker of SEQ ID NO: 4) (scFv)
chain: EVQLVESGGGLVQPGNSLTLSCVASGFTFSNYGMHWIRQAPKKGLEWIAMIAYDSSKMNYADTVKGRFTISRDNSKNTLYLEMNSLRSEDTAMYYCAVPTAHYVVDVWGQGVSVTVSSGGGGSGGGGSGGGGSDIQMTQSPASLSASLEEIVTITCQASQDIGNWLAWYQQKPGKSPQLLIAGATSLADGVPSRFSGSRSGTQFSLKISRVQVEDIGIYYCLQAANTPWTFGGGTKLELKRGGGGSGGGGSGGGGSSETQANSTTDALNVLLIIVDDLRPSLGCYGDKLVRSPNIDQLASHSLLFQNAFAQQAVCAPSRVSFLTGRRPDTTRLYDFNSYWRVHAGNFSTIPQYFKENGYVTMSVGKVFHPGISSNHTDDSPYSWSFPPYHPSSEKYENTKTCRGPDGELHANLLCPVDVLDVPEGTLPDKQSTEQAIQLLEKMKTSASPFFLAVGYHKPHIPFRYPKEFQKLYPLENITLAPDPEVPDGLPPVAYNPWMDIRQREDVQALNISVPYGPIPVDFQRKIRQSYFASVSYLDTQVGRLLSALDDLQLANSTIIAFTSDHGWALGEHGEWAKYSNFDVATHVPLIFYVPGRTASLPEAGEKLFPYLDPFDSASQLMEPGRQSMDLVELVSLFPTLAGLAGLQVPPRCPVPSFHVELCREGKNLLKHFRFRDLEEDPYLPGNPRELIAYSQYPRPSDIPQWNSDKPSLKDIKIMGYSIRTIDYRYTVWVGFNPDEFLANFSDIHAGELYFVDSDPLQDHNMYNDSQGGDLFQLLMP
notes: scFv-enzyme fusion, recombinant from CHO cells; also called mouse anti-mTfRscFv antibody 2-hI2S conjugate
B3 returned an EC50 in assay [1] of 13.2 nM.

B4: mscFv-GS3-hI2S (conjugate in which human iduronate-2-sulfatase is bound to the C-terminus of a mouse anti-mouse transferrin receptor single chain antibody via … (scFv)
chain: EVQLVESGGGLVQPGNSLTLSCVASGFTFSNYGMHWIRQAPKKGLEWIAMIYYDSSKMNYADTVKGRFTISRDNSKNTLYLEMNSLRSEDTAMYYCAVPTSHYVVDVWGQGVSVTVSSGGGGSGGGGSGGGGSDIQMTQSPASLSASLEEIVTITCQASQDIGNWLAWYQQKPGKSPQLLIYGATSLADGVPSRFSGSRSGTQFSLKISRVQVEDIGIYYCLQAYNTPWTFGGGTKLELKRGGGGSGGGGSGGGGSSETQANSTTDALNVLLIIVDDLRPSLGCYGDKLVRSPNIDQLASHSLLFQNAFAQQAVCAPSRVSFLTGRRPDTTRLYDFNSYWRVHAGNFSTIPQYFKENGYVTMSVGKVFHPGISSNHTDDSPYSWSFPPYHPSSEKYENTKTCRGPDGELHANLLCPVDVLDVPEGTLPDKQSTEQAIQLLEKMKTSASPFFLAVGYHKPHIPFRYPKEFQKLYPLENITLAPDPEVPDGLPPVAYNPWMDIRQREDVQALNISVPYGPIPVDFQRKIRQSYFASVSYLDTQVGRLLSALDDLQLANSTIIAFTSDHGWALGEHGEWAKYSNFDVATHVPLIFYVPGRTASLPEAGEKLFPYLDPFDSASQLMEPGRQSMDLVELVSLFPTLAGLAGLQVPPRCPVPSFHVELCREGKNLLKHFRFRDLEEDPYLPGNPRELIAYSQYPRPSDIPQWNSDKPSLKDIKIMGYSIRTIDYRYTVWVGFNPDEFLANFSDIHAGELYFVDSDPLQDHNMYNDSQGGDLFQLLMP
notes: scFv-enzyme fusion, expressed as a recombinant protein in CHO cells and collected from the culture supernatant; also called mouse anti-mTfRscFv antibody-hI2S conjugate
B4 gave an EC50 in assay [1] of 2.4 nM.
